{"source": "patent US20220356229A1", "binders": {"B1": {"name": "antibody 337 (antibody, V domains shown)", "VH": "QVQLVESGGGVVQPGRSLRLSCAASGFTFSSYGMHWVRQAPGKGLEWVAIIWYDGSNKYYADSVKGRFTISRDNSKNTLYLQMNSLRAEDTAVYYCAKDTGGYCSGGSCYPESYFDYWGQGTLVTVSS", "VL": "SYVLTQPPSVSVAPGKTARITCGGNNIGSKSVHWYQQKPGQAPVLVIYYDSDRPSGIPERFSGSNSGNTATLTINRVEAGDEADYYCQVWDGSSDHLYVFGTGTKVTVL"}, "B2": {"name": "anti-SARS-CoV-2 antibody 311 (antibody, V domains shown)", "VH": "QVQLQESGPGLVKPSETLSLTCTVSGYSISSGYYWGWIRQPPGKGLEWIGSIYHSGSTYYNPSLKSRVTISVDTSKNQFSLKLSSVTAADTAVYYCAREETLGSSWYESYIDYWGQGTLVTVSS", "VL": "B1 VL with N75S, G92S, L97P, Y98R, T102G, V106L"}, "B3": {"name": "antibody 259 (antibody, V domains shown)", "VH": "EVQLVQSGAEVKKPGATVKISCKVSGYTFTDYYMHWVQQAPGKGLEWMGLVDPEDGETIYAEKFQGRVTITADTSTDTAYMELSSLRSEDTAVYYCATDLLSWKLYCSGGSCPQMDVWGQGTTVTVSS", "VL": "DIQMTQSPSSLSASVGDRVTITCRASQGIRNDLGWYQQKPGKAPKRLIYAASSLQSGVPSRFSGSGSGTEFTLTISSLQPEDFATYYCLQHNSYPQTFGQGTKLEIK"}, "B4": {"name": "antibody 396 (antibody, V domains shown)", "VH": "QVQLQQWGAGLLKPSETLSLTCAVYGGSFSGYYWSWIRQPPGKGLEWIGEIIHSGSTNYNPSLKSRVTISVDTSKNQFSLKLSSVTAADTAVYYSARRTGLLWFREGSYYFDYWGQGTLVTVSS", "VL": "B3 VL with Q96L, Q100G, L104V"}, "B5": {"name": "anti-SARS-CoV-2 antibody 304 (antibody, V domains shown)", "VH": "EVQLLESGGGLVQPGGSLRLSCAASGFTFSTYAMSWVRQAPGKGLEWVSAISGSGGSTYYADSVKGRFTISRDNSKNTLYLQMNSLRAEDTAVYYCASGYSPDYWGQGTLVTVSS", "VL": "B3 VL with D1A, R46L, E70D, H91D, N92Y, S93N, Q96R, L104V"}, "B6": {"name": "antibody 267 (antibody, V domains shown)", "VH": "EVHLVQSGAEMKKPGATVKISCKVSGNTFIDHYIQWVQQAPGKGFEWMGLVDPEDGETIYAEKFQGRVTITADTSRDTAYMELSSLKSEDTAVYYCGTHGDYLDYWGQGTLVTVSS", "VL": "FYELTQPSSVSVSPGQTALITCSGDVVAKKYARWFQQKAGQAPVLVIYKDTERPSGIPERISGSSSGTTVTLTISGAQVEDEADYYCYSATDNNLVFGGGTKVTVL"}, "B7": {"name": "antibody 521 (antibody, V domains shown)", "VH": "QVQLVESGGGVVQPGRSLRLSCAASGFTFSSYGMHWVRQAPGKGLEWVAVIWYDGSNKYYADSVKGRFTISRDNSKNTLYLQMNSLRAEDTAVYYCAREGNDYGDYGEWELLGYFDYWGQGTLVTVSS", "VL": "SYELTQPPSVSVSPGQTARITCSGDALPKKYAYWYQQKSGQAPVLVIYEDSKRPSGIPERFSGSSSGTMATLTISGAQVEDEADYYCYSTDSSGNHRRVFGGGTKLTVL"}, "B8": {"name": "anti-SARS-CoV-2 antibody 318 (antibody, V domains shown)", "VH": "QVQLVESGGGVVPPGRSLSLPCAASGFSFSAYAMHWLRQAPGKGLEWVAVISYDGTVKYVADSVRGRFTISRDNSNNTLYLQMTSLRSDDTAVYYCARDLGALAAAPTVYFVHWGQGTLVTVSS", "VL": "SYVLTQPPSVSVAPGKTATITCAGEDIGRKSVHWYQQKPGQAPVLVIFYYSDRPSGIPDRFSGSVSGNTATLTIGRVEAGDEADYFCQVWDRTTNHVIFGGGTKVTVL"}, "B9": {"name": "antibody 362 (antibody, V domains shown)", "VH": "QVQLVESGGGVVQPGRSLRLSCAASGFNLSNYAMHWVRQASGKGLEWVSLISYDGSVKYYTDSVKGRFTVSGDNSKNTLFLQMNSLRPDDSALYYCVRGGVSGPNSFDMWGQGTTVTVSS", "VL": "DVVMTQSPLSLPVTLGQPATISCRSSQSLVYSDGNTYVNWFQQRPGQSPRRLIYQVSIRASGVPDRFSGSGSGTDFALKISRVEAEDVGVYYCMQGTHWPVTFGQGTKVEIK"}, "B10": {"name": "anti-SARS-CoV-2 antibody 316 (antibody, V domains shown)", "VH": "QVHLVESGGGVVQPGRSLRLSCAASGFTLTAYAMHWVRQAPGKRLEWVALISYDGSVKKYADSVKGRITVSGDTSTNTLHLQMNSLRADDTAVYYCVRGGVSGPNSFDLWGQGTMVTVSS", "VL": "B9 VL with T20S, I21M, V30E, Q42H, Q55K, I58Y, A60D, A77T, K79Q, V90I"}, "B11": {"name": "anti-SARS-CoV-2 antibody 319 (antibody, V domains shown)", "VH": "B9 VH with V57I", "VL": "B9 VL with T20S"}, "B12": {"name": "antibody 315 (antibody, V domains shown)", "VH": "QVQLVQSGSELKKPGASVKLSCQASGYSFTNHAMNWVRQAPGQGLEWMGWINTNTGNPTYAQGFTGRFVFSLDTSVSTTYLHISSLKAEDTAVYYCARASARPGVATNLDFWGQGTLVVVSS", "VL": "DIQMTQSPSSLSASVGDRVTITCRASQNIDNYLNWYQQKPGKAPKLLIYAASRLHSGVPSRFSGSGSGTDFTLIISSLQPEDLATYYCQQSYSNPLTFGPGTKVDIR"}, "B13": {"name": "anti-SARS-CoV-2 antibody 315 (antibody, V domains shown)", "VH": "B12 VH", "VL": "B12 VL"}, "B14": {"name": "antibody 416 (antibody, V domains shown)", "VH": "EVQLVESGGGLVQPGRSLRLSCAASGFTFDDYAMHWVRQAPGKGLEWVSGISWNSGSIGYADSVKGRFTISRDNAKNSLYLQMNSLRAEDTALYYCAKDLAWLSGGMDVWGQGTTVTVSS", "VL": "not shown"}, "B15": {"name": "antibody 325 (antibody, V domains shown)", "VH": "QVQLQESGPGLVKPSQTLSLTCTVSGGSISGGGYYWSWIRQHPGKGLEWIGYIYYSGSTYYNPSLQSRVTISVDTSKNQFSLKLSSVTAADTAVYYCARVGTSSVWYFDYWGQGTLVTVSS", "VL": "QSALTQPRSVSGSPGQSVTISCTGTSSDVGGYNYVSWYQQHPGKAPKLMIYDVTKRPSGVPDRFSGSKSGNTASLTISGLQAEDEADYYCSSYAGSWVFGGGTKLTVL"}, "B16": {"name": "antibody 322 (antibody, V domains shown)", "VH": "EVQLVESGGGLVQPGGSLRLSCAASGFTFSSYWMSWVRQAPGKGLEWVANIKQDGSEKYYVDSVKGRFTISRDNAKNSLYLQMNSLRAEDTAVYYCARDEDVAAALDYWGQGTLVTVSS", "VL": "SYVLTQPPSVSVAPGKTARITCGGNNIGSKSVHWYQQKPGQAPVLVIYYDSDRPSGIPERFSGSNSGNTATLTISRVEAGDEADYYCQVWDSSSDHPERVFGGGTKLTVL"}, "B17": {"name": "antibody 452 (antibody, V domains shown)", "VH": "QVQLVESGGGLVKPGGSLRLSCAASGFTFSDYYLSWIRQAPGKGLEWVSYISSSGSNIYYADSVKGRFTISRDNAKNSLYLQMNSLRADDTAVFYCARAGRYCSGGSCRVEYFQHWGQGTLVTVSS", "VL": "SYELTQPPSVSVSPGQTARITCSGDALPKQYAYWYQQKPGQAPVLVIYKDNERPSGIPERFSGSSSGTTATLTISGVQAEDEADYYCQSADSSGTVVFGGGTKLTVL"}, "B18": {"name": "antibody 493 (antibody, V domains shown)", "VH": "EVQLVESGGGLIQPGRSLRLSCAASGFTVSITYMSWVRQAPGKGLEWVSLIYSGGSSYYADSVKGRFTISRDNSKNTLYLQMNSLRAEDTAVYYCATTMVRGVIISYYYGMDVWGQGTTVTVSS", "VL": "QSALTQPASVSGSPGQSITISCTGTSSDVGGYNYVSWYQQHPGKAPKLMIYEVSNRPSGVSNRFSGSKSGNTASLTISGLQAEDEADYYCSSYTSSSTLVFGGGTKLTVL"}, "B19": {"name": "antibody 413 (antibody, V domains shown)", "VH": "EVQLVESGGGLIQPGGSLRLSCAASGFTVSGNYMNWVRQAPGKGLEWVSVIYSGGSTYYADSVKGRFTISRANSKNTLYLQMNSLRAEDTAVYYCASTSLVRGLIILYYYGMDVWGQGTTVTVSS", "VL": "B18 VL"}, "B20": {"name": "antibody 390 (antibody, V domains shown)", "VH": "B18 VH with R16G, I31S, T32N, L50I, S57T, T90S, Y94S, V103L", "VL": "B18 VL"}, "B21": {"name": "antibody 392 (antibody, V domains shown)", "VH": "QVQLQESGPGLVKPSGTLSLTCAVSGGSISSSNWWSWVRQPPGKGLEWIGEIYHSGSTNYNPSLKSRVTISVDKSKNQFSLKLSSVTAADTAVYYCARGWRATLYGMDVWGQGTTVTVSS", "VL": "B18 VL with G31S, Y34L, N55K, S91C, T94A, S95G, L99W"}}, "key": {"[1]": {"molecular_target": "SARS-CoV-2 full length Spike protein, wild type (SARS-CoV-2), P0DTC2", "settings": "remark: other sources report otherwise"}, "[2]": {"molecular_target": "full length Spike of WIV1 (WIV1)"}, "[3]": {"molecular_target": "T1, SARS-CoV-2 Spike (S) protein, wild type, full length (SARS-CoV-2), P0DTC2", "settings": "remark: other sources report otherwise"}, "[4]": {"molecular_target": "T1, SARS-CoV-2 Spike (S) protein, wild …", "settings": "remark: other sources report otherwise", "remark": "listed apart in the source"}}, "note": "Positions count from the first letter of the chain named. Several values for one entry are separate records, joined by “and”; a condition that tells them apart may be missing. Equal values may be shown once."}
{"binder": "B1", "values": [{"measurement": "bead binding signal (fold over isotype) (fold over isotype)", "setting": "[1]", "result": 756}]}
{"binder": "B2", "values": [{"measurement": "fold over isotype control (median fluorescence) (fold over isotype)", "setting": "[2]", "result": "1.11 and 1.14"}]}
{"binder": "B3", "values": [{"measurement": "bead binding signal (fold over isotype) (fold over isotype)", "setting": "[3]", "result": 275}]}
{"binder": "B4", "values": [{"measurement": "fold over isotype control (median fluorescence) (fold over isotype)", "setting": "[1]", "result": 553}]}
{"binder": "B5", "values": [{"measurement": "fold over isotype control (median fluorescence) (fold over isotype)", "setting": "[2]", "result": "1.01 and 1.04"}]}
{"binder": "B6", "values": [{"measurement": "bead binding signal (fold over isotype) (fold over isotype)", "setting": "[3]", "result": 312}]}
{"binder": "B7", "values": [{"measurement": "median fluorescence, fold over isotype control (fold over isotype)", "setting": "[4]", "result": 0.86}]}
{"binder": "B8", "values": [{"measurement": "fold over isotype control (median fluorescence) (fold over isotype)", "setting": "[2]", "result": "291 and 166"}]}
{"binder": "B9", "values": [{"measurement": "fold over isotype (median fluorescence intensity) (fold over isotype)", "setting": "[4]", "result": 9.45}, {"measurement": "bead binding signal (fold over isotype) (fold over isotype)", "setting": "[1]", "result": 503}]}
{"binder": "B10", "values": [{"measurement": "fold over isotype control (median fluorescence) (fold over isotype)", "setting": "[2]", "result": 93.8}]}
{"binder": "B11", "values": [{"measurement": "fold over isotype control (median fluorescence) (fold over isotype)", "setting": "[2]", "result": 96.2}]}
{"binder": "B12", "values": [{"measurement": "bead binding signal (fold over isotype) (fold over isotype)", "setting": "[1]", "result": 592}]}
{"binder": "B13", "values": [{"measurement": "fold over isotype control (median fluorescence) (fold over isotype)", "setting": "[2]", "result": 1.09}]}
{"binder": "B14", "values": [{"measurement": "median fluorescence fold over isotype (fold over isotype control)", "setting": "[1]", "result": 110}]}
{"binder": "B15", "values": [{"measurement": "fold over isotype (median fluorescence intensity) (fold over isotype)", "setting": "[4]", "result": 1.08}]}
{"binder": "B16", "values": [{"measurement": "fold over isotype (median fluorescence intensity) (fold over isotype)", "setting": "[4]", "result": 1.65}]}
{"binder": "B17", "values": [{"measurement": "median fluorescence fold over isotype (fold over isotype control)", "setting": "[1]", "result": 854}]}
{"binder": "B18", "values": [{"measurement": "median fluorescence, fold over isotype control (fold over isotype)", "setting": "[4]", "result": 1.1}]}
{"binder": "B19", "values": [{"measurement": "median fluorescence fold over isotype (fold over isotype control)", "setting": "[1]", "result": "969 and 367 and 416"}]}
{"binder": "B20", "values": [{"measurement": "fold over isotype control (median fluorescence) (fold over isotype)", "setting": "[1]", "result": "637 and 341 and 318"}]}
{"binder": "B21", "values": [{"measurement": "fold over isotype control (median fluorescence) (fold over isotype)", "setting": "[1]", "result": 509}]}
